Experimental data: PMC4510711

Assays:
[1] = biological target: T1, RC3H1-N2 (RING+ROQ+CCCH Zn finger) (Homo sapiens, UniProt Q5TC82 2-452); test: EMSA; virtually unaffected vs WT; EMSA: 20 mM Tris-HCl pH 7.5, 50 mM KCl, 5 mM MgCl2, 20 uM ZnSO4, 10% glycerol, 2 mM DTT, 0.05 mg/ml BSA, 5 ug/ml heparin; 50 fmol RNA in 20 ul, room temperature
T1 sequence: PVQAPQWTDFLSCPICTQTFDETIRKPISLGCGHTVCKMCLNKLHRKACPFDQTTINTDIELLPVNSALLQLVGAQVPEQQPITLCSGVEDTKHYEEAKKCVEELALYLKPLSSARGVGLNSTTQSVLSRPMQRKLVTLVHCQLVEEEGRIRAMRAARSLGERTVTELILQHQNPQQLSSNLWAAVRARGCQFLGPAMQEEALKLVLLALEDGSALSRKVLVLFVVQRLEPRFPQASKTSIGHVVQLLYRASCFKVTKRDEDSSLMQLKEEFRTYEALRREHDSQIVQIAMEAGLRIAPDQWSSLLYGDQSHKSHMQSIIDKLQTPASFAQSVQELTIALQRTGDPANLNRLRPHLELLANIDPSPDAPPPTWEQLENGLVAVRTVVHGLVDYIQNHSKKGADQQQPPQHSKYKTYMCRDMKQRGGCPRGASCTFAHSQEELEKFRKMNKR

[2] = biological target: T1, RC3H1-N2 (RING+ROQ+CCCH Zn finger); test: EMSA; EMSA: 20 mM Tris-HCl pH 7.5, 50 mM KCl, 5 mM MgCl2, 20 uM ZnSO4, 10% glycerol, 2 mM DTT, 0.05 mg/ml BSA, 5 ug/ml heparin; 50 fmol RNA in 20 ul, room temperature
[3] = biological target: T1, RC3H1-N2 (RING+ROQ+CCCH Zn finger); test: EMSA; higher affinity than the 21-nt hairpin; EMSA: 20 mM Tris-HCl pH 7.5, 50 mM KCl, 5 mM MgCl2, 20 uM ZnSO4, 10% glycerol, 2 mM DTT, 0.05 mg/ml BSA, 5 ug/ml heparin; 50 fmol RNA in 20 ul, room temperature
[4] = biological target: T2, RC3H1-N1 (RING+ROQ) (Homo sapiens, UniProt Q5TC82 2-399); test: EMSA; EMSA: 20 mM Tris-HCl pH 7.5, 50 mM KCl, 5 mM MgCl2, 20 uM ZnSO4, 10% glycerol, 2 mM DTT, 0.05 mg/ml BSA, 5 ug/ml heparin; 50 fmol RNA in 20 ul, room temperature
T2 sequence: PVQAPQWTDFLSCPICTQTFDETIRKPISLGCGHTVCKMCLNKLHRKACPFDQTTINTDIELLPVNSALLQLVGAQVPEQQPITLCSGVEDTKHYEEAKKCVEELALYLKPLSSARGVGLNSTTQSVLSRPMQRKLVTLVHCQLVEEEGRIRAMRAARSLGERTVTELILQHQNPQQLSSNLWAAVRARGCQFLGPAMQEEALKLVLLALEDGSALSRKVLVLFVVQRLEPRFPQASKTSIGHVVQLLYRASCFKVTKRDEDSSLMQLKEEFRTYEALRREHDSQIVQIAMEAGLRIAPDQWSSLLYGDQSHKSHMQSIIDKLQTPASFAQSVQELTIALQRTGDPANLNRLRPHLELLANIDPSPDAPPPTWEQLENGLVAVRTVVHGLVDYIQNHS

[5] = biological target: T1, RC3H1-N2 (RING+ROQ+CCCH Zn finger); test: EMSA; complex formation seemed independent of the Zn finger; EMSA: 20 mM Tris-HCl pH 7.5, 50 mM KCl, 5 mM MgCl2, 20 uM ZnSO4, 10% glycerol, 2 mM DTT, 0.05 mg/ml BSA, 5 ug/ml heparin; 50 fmol RNA in 20 ul, room temperature

B1: Mut1 (21 nt) (structured_RNA)
RNA: CCCUUACAUAAUGUAUGAGGG
[1]
  binding result: binds

B2: Mut3 (21 nt) control (ssRNA)
RNA: CCUCCCCCCCUGCCCCCCAGC
[2]
  binding result: no binding

B3: A20 (21 nt) stem-loop WT (structured_RNA)
RNA: CCCUUACAUUAUGUAUGAGGG
[2]
  binding result: binds

B4: A20 (37 nt) ARE-stem-loop (structured_RNA)
RNA: AUAUAUAAUAUACCCUUACAUUAUGUAUGAGGGAUUU
[3]
  binding result: binds

B5: ICOS (13 nt) CDE-like stem-loop (structured_RNA)
RNA: AUUUCUGUGAAAU
[4]
  binding result: binds
[5]
  binding result: binds
